Results published in patent US8815237.

Tests used:
Assay in all cases: SPR (Biacore T100), steady state; antibody immobilized, soluble receptor injected
[1] = target: soluble human FcγRIIA^131H (human) (UniProt P12318)
[2] = target: soluble human FcγRIIA^131R (human) (UniProt P12318)
[3] = target: soluble human FcγRIa (R&D Systems) (human) (UniProt P12314)
UniProt P12314, sequence (P12314 16-288 limits assumed): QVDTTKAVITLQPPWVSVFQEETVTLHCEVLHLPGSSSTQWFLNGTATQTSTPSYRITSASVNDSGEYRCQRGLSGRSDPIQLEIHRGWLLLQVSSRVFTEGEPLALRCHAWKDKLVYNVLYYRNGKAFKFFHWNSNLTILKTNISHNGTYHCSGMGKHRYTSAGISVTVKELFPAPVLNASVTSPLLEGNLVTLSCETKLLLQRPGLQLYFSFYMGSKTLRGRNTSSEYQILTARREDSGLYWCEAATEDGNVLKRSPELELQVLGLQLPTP

Kd [1]: 7 µM | Kd [2]: 1.7 µM | fold stronger binding than wild-type Fc [2]: 3 fold | fold weakening of binding against wild type [3]: 10 fold
Substance: 4m5.3 hIgG1 S298G/T299A (antibody)
